# Assay results: US20250084169A1
# Several values for one entry are separate records, joined by “and”; a condition that tells them apart may be missing. Equal entries are not always repeated.
# Key:
# [1] = target: SARS-CoV-2 spike N439K variant on pseudovirus (RVP-703) (SARS-CoV-2) (UniProt P0DTC2); assay: cell-based or functional assay
# [2] = target: SARS-CoV-2 spike South African Δ3 B.1.351 variant on pseudovirus (RVP-724) (SARS-CoV-2) (UniProt P0DTC2); assay: cell-based or functional assay
substance,measurement,setting,value
Imdevimab (biosimilar version) (antibody),"EC50 (pM) Neutralization, pseudovirus",[1],2260 pM and 2220 pM
same,"fold less potent than REGN10933, pseudovirus neutralization",[1],1000 fold
same,"EC50 (pM) Neutralization, pseudovirus",[2],2.48 pM and 2.37 pM
